# Measurements: patent US20180273587A1 (AILERON THERAPEUTICS, published 2018)
# Positions of bridges follow the written chain, without caps; N, C: chain ends. Non-standard residues stand in square brackets, D forms with d. Phe(4-CF3) = N[C@@H](Cc1ccc(C(F)(F)F)cc1)C(=O)O; Phe(4-tBu) = CC(C)(C)c1ccc(C[C@H](N)C(=O)O)cc1; R8 = C=CCCCCCC[C@@](C)(N)C(=O)O; S5 = C=CCCC[C@](C)(N)C(=O)O
# B1: SEQ ID NO: 1741 (peptide)
# peptide: Ac-IWIAAALR[R8]IGDAGN[S5]YYA-NH2
# modifications: staple 9-16
# SMILES: CC[C@H](C)[C@H](NC(C)=O)C(=O)N[C@@H](Cc1c[nH]c2ccccc12)C(=O)N[C@H](C(=O)N[C@@H](C)C(=O)N[C@@H](C)C(=O)N[C@@H](C)C(=O)N[C@@H](CC(C)C)C(=O)N[C@@H](CCCNC(=N)N)C(=O)N[C@]1(C)CCCCCCC=CCCC[C@@](C)(C(=O)N[C@@H](Cc2ccc(O)cc2)C(=O)N[C@@H](Cc2ccc(O)cc2)C(=O)N[C@@H](C)C(N)=O)NC(=O)[C@H](CC(N)=O)NC(=O)CNC(=O)[C@H](C)NC(=O)[C@H](CC(=O)O)NC(=O)CNC(=O)[C@H]([C@@H](C)CC)NC1=O)[C@@H](C)CC
# B2: SEQ ID NO: 1739 (peptide)
# peptide: Ac-IWIAAALR[R8]IVDAFN[S5]YYA-NH2
# modifications: staple 9-16
# SMILES: CC[C@H](C)[C@H](NC(C)=O)C(=O)N[C@@H](Cc1c[nH]c2ccccc12)C(=O)N[C@H](C(=O)N[C@@H](C)C(=O)N[C@@H](C)C(=O)N[C@@H](C)C(=O)N[C@@H](CC(C)C)C(=O)N[C@@H](CCCNC(=N)N)C(=O)N[C@]1(C)CCCCCCC=CCCC[C@@](C)(C(=O)N[C@@H](Cc2ccc(O)cc2)C(=O)N[C@@H](Cc2ccc(O)cc2)C(=O)N[C@@H](C)C(N)=O)NC(=O)[C@H](CC(N)=O)NC(=O)[C@H](Cc2ccccc2)NC(=O)[C@H](C)NC(=O)[C@H](CC(=O)O)NC(=O)[C@H](C(C)C)NC(=O)[C@H]([C@@H](C)CC)NC1=O)[C@@H](C)CC
# B3: SEQ ID NO: 1745 (peptide)
# peptide: Ac-IWIAQALR[R8]IGDA[Phe(4-tBu)]N[S5]YYA-NH2
# modifications: staple 9-16
# SMILES: CC[C@H](C)[C@H](NC(C)=O)C(=O)N[C@@H](Cc1c[nH]c2ccccc12)C(=O)N[C@H](C(=O)N[C@@H](C)C(=O)N[C@@H](CCC(N)=O)C(=O)N[C@@H](C)C(=O)N[C@@H](CC(C)C)C(=O)N[C@@H](CCCNC(=N)N)C(=O)N[C@]1(C)CCCCCCC=CCCC[C@@](C)(C(=O)N[C@@H](Cc2ccc(O)cc2)C(=O)N[C@@H](Cc2ccc(O)cc2)C(=O)N[C@@H](C)C(N)=O)NC(=O)[C@H](CC(N)=O)NC(=O)[C@H](Cc2ccc(C(C)(C)C)cc2)NC(=O)[C@H](C)NC(=O)[C@H](CC(=O)O)NC(=O)CNC(=O)[C@H]([C@@H](C)CC)NC1=O)[C@@H](C)CC
# B4: SEQ ID NO: 1753 (peptide)
# peptide: Ac-IWIAAALR[R8]IGDAFN[S5]LYA-NH2
# modifications: staple 9-16
# SMILES: CC[C@H](C)[C@H](NC(C)=O)C(=O)N[C@@H](Cc1c[nH]c2ccccc12)C(=O)N[C@H](C(=O)N[C@@H](C)C(=O)N[C@@H](C)C(=O)N[C@@H](C)C(=O)N[C@@H](CC(C)C)C(=O)N[C@@H](CCCNC(=N)N)C(=O)N[C@]1(C)CCCCCCC=CCCC[C@@](C)(C(=O)N[C@@H](CC(C)C)C(=O)N[C@@H](Cc2ccc(O)cc2)C(=O)N[C@@H](C)C(N)=O)NC(=O)[C@H](CC(N)=O)NC(=O)[C@H](Cc2ccccc2)NC(=O)[C@H](C)NC(=O)[C@H](CC(=O)O)NC(=O)CNC(=O)[C@H]([C@@H](C)CC)NC1=O)[C@@H](C)CC
# B5: SEQ ID NO: 1740 (peptide)
# peptide: Ac-IWIAAALR[R8]IGEAFN[S5]YYA-NH2
# modifications: staple 9-16
# SMILES: CC[C@H](C)[C@H](NC(C)=O)C(=O)N[C@@H](Cc1c[nH]c2ccccc12)C(=O)N[C@H](C(=O)N[C@@H](C)C(=O)N[C@@H](C)C(=O)N[C@@H](C)C(=O)N[C@@H](CC(C)C)C(=O)N[C@@H](CCCNC(=N)N)C(=O)N[C@]1(C)CCCCCCC=CCCC[C@@](C)(C(=O)N[C@@H](Cc2ccc(O)cc2)C(=O)N[C@@H](Cc2ccc(O)cc2)C(=O)N[C@@H](C)C(N)=O)NC(=O)[C@H](CC(N)=O)NC(=O)[C@H](Cc2ccccc2)NC(=O)[C@H](C)NC(=O)[C@H](CCC(=O)O)NC(=O)CNC(=O)[C@H]([C@@H](C)CC)NC1=O)[C@@H](C)CC
# B6: SEQ ID NO: 1744 (peptide)
# peptide: Ac-IWIAQALR[R8]IGDA[Phe(4-CF3)]N[S5]YYA-NH2
# modifications: staple 9-16
# SMILES: CC[C@H](C)[C@H](NC(C)=O)C(=O)N[C@@H](Cc1c[nH]c2ccccc12)C(=O)N[C@H](C(=O)N[C@@H](C)C(=O)N[C@@H](CCC(N)=O)C(=O)N[C@@H](C)C(=O)N[C@@H](CC(C)C)C(=O)N[C@@H](CCCNC(=N)N)C(=O)N[C@]1(C)CCCCCCC=CCCC[C@@](C)(C(=O)N[C@@H](Cc2ccc(O)cc2)C(=O)N[C@@H](Cc2ccc(O)cc2)C(=O)N[C@@H](C)C(N)=O)NC(=O)[C@H](CC(N)=O)NC(=O)[C@H](Cc2ccc(C(F)(F)F)cc2)NC(=O)[C@H](C)NC(=O)[C@H](CC(=O)O)NC(=O)CNC(=O)[C@H]([C@@H](C)CC)NC1=O)[C@@H](C)CC
# B7: SEQ ID NO: 1748 (peptide)
# peptide: Ac-IWIAAALR[R8]IGDAFD[S5]YYA-NH2
# modifications: staple 9-16
# SMILES: CC[C@H](C)[C@H](NC(C)=O)C(=O)N[C@@H](Cc1c[nH]c2ccccc12)C(=O)N[C@H](C(=O)N[C@@H](C)C(=O)N[C@@H](C)C(=O)N[C@@H](C)C(=O)N[C@@H](CC(C)C)C(=O)N[C@@H](CCCNC(=N)N)C(=O)N[C@]1(C)CCCCCCC=CCCC[C@@](C)(C(=O)N[C@@H](Cc2ccc(O)cc2)C(=O)N[C@@H](Cc2ccc(O)cc2)C(=O)N[C@@H](C)C(N)=O)NC(=O)[C@H](CC(=O)O)NC(=O)[C@H](Cc2ccccc2)NC(=O)[C@H](C)NC(=O)[C@H](CC(=O)O)NC(=O)CNC(=O)[C@H]([C@@H](C)CC)NC1=O)[C@@H](C)CC
# B8: SEQ ID NO: 1749 (peptide)
# peptide: Ac-IWIAAALR[R8]IGDAFE[S5]YYA-NH2
# modifications: staple 9-16
# SMILES: CC[C@H](C)[C@H](NC(C)=O)C(=O)N[C@@H](Cc1c[nH]c2ccccc12)C(=O)N[C@H](C(=O)N[C@@H](C)C(=O)N[C@@H](C)C(=O)N[C@@H](C)C(=O)N[C@@H](CC(C)C)C(=O)N[C@@H](CCCNC(=N)N)C(=O)N[C@]1(C)CCCCCCC=CCCC[C@@](C)(C(=O)N[C@@H](Cc2ccc(O)cc2)C(=O)N[C@@H](Cc2ccc(O)cc2)C(=O)N[C@@H](C)C(N)=O)NC(=O)[C@H](CCC(=O)O)NC(=O)[C@H](Cc2ccccc2)NC(=O)[C@H](C)NC(=O)[C@H](CC(=O)O)NC(=O)CNC(=O)[C@H]([C@@H](C)CC)NC1=O)[C@@H](C)CC
# B9: SEQ ID NO: 1751 (peptide)
# peptide: Ac-IWIAAALR[R8]IGDAFS[S5]YYA-NH2
# modifications: staple 9-16
# SMILES: CC[C@H](C)[C@H](NC(C)=O)C(=O)N[C@@H](Cc1c[nH]c2ccccc12)C(=O)N[C@H](C(=O)N[C@@H](C)C(=O)N[C@@H](C)C(=O)N[C@@H](C)C(=O)N[C@@H](CC(C)C)C(=O)N[C@@H](CCCNC(=N)N)C(=O)N[C@]1(C)CCCCCCC=CCCC[C@@](C)(C(=O)N[C@@H](Cc2ccc(O)cc2)C(=O)N[C@@H](Cc2ccc(O)cc2)C(=O)N[C@@H](C)C(N)=O)NC(=O)[C@H](CO)NC(=O)[C@H](Cc2ccccc2)NC(=O)[C@H](C)NC(=O)[C@H](CC(=O)O)NC(=O)CNC(=O)[C@H]([C@@H](C)CC)NC1=O)[C@@H](C)CC
# B10: SEQ ID NO: 1752 (peptide)
# peptide: Ac-IWIAAALR[R8]IGDAFH[S5]YYA-NH2
# modifications: staple 9-16
# SMILES: CC[C@H](C)[C@H](NC(C)=O)C(=O)N[C@@H](Cc1c[nH]c2ccccc12)C(=O)N[C@H](C(=O)N[C@@H](C)C(=O)N[C@@H](C)C(=O)N[C@@H](C)C(=O)N[C@@H](CC(C)C)C(=O)N[C@@H](CCCNC(=N)N)C(=O)N[C@]1(C)CCCCCCC=CCCC[C@@](C)(C(=O)N[C@@H](Cc2ccc(O)cc2)C(=O)N[C@@H](Cc2ccc(O)cc2)C(=O)N[C@@H](C)C(N)=O)NC(=O)[C@H](Cc2c[nH]cn2)NC(=O)[C@H](Cc2ccccc2)NC(=O)[C@H](C)NC(=O)[C@H](CC(=O)O)NC(=O)CNC(=O)[C@H]([C@@H](C)CC)NC1=O)[C@@H](C)CC
# B11: SEQ ID NO: 1750 (peptide)
# peptide: Ac-IWIAAALR[R8]IGDAFQ[S5]YYA-NH2
# modifications: staple 9-16
# SMILES: CC[C@H](C)[C@H](NC(C)=O)C(=O)N[C@@H](Cc1c[nH]c2ccccc12)C(=O)N[C@H](C(=O)N[C@@H](C)C(=O)N[C@@H](C)C(=O)N[C@@H](C)C(=O)N[C@@H](CC(C)C)C(=O)N[C@@H](CCCNC(=N)N)C(=O)N[C@]1(C)CCCCCCC=CCCC[C@@](C)(C(=O)N[C@@H](Cc2ccc(O)cc2)C(=O)N[C@@H](Cc2ccc(O)cc2)C(=O)N[C@@H](C)C(N)=O)NC(=O)[C@H](CCC(N)=O)NC(=O)[C@H](Cc2ccccc2)NC(=O)[C@H](C)NC(=O)[C@H](CC(=O)O)NC(=O)CNC(=O)[C@H]([C@@H](C)CC)NC1=O)[C@@H](C)CC
# Biological target: T1, BCL-XL (UniProt Q07817 1-209)
# T1 construct: Target of the Ki columns
# T1 sequence (Q07817 1-209): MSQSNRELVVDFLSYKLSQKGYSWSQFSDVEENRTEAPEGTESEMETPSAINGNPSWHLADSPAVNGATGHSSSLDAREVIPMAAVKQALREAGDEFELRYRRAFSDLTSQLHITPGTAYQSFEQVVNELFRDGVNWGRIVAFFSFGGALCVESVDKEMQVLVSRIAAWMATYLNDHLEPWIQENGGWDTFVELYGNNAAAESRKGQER
# Test: Ki; method not stated; unit not printed (nM per Table 6)
row,Binder,Ki
1,B1,171 nM
2,B2,140 nM
3,B3,154 nM
4,B4,69.9 nM
5,IWIAQALRAIGDAXNAYYA (N-terminal Ac; $r8 at 9 and $ at 16 (crosslinked); Bip at 14; C-terminal NH2) [SEQ ID NO: 1747],100 nM
6,B5,135 nM
7,B6,107 nM
8,B7,25.9 nM
9,B8,17.9 nM
10,B9,44.1 nM
11,B10,36.3 nM
12,B11,36.5 nM

# Biological target: T2, MCL-1 (UniProt Q07820 172-327, limits assumed)
# T2 construct: Target of the Ki columns; also called Myeloid cell leukemia 1
# T2 sequence (Q07820 172-327 limits assumed): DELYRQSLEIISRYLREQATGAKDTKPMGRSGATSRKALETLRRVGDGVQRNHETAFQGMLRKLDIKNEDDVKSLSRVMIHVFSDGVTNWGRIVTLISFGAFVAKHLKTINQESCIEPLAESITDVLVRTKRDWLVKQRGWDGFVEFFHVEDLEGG
# Test: as above
row,Binder,Ki
1,B1,29.7 nM
2,B2,104 nM
3,B3,21.2 nM
4,B4,17.6 nM
5,IWIAQALRAIGDAXNAYYA (N-terminal Ac; $r8 at 9 and $ at 16 (crosslinked); Bip at 14; C-terminal NH2) [SEQ ID NO: 1747],6.5 nM
6,B5,63.6 nM
7,B6,8.2 nM
8,B7,1.5 nM
9,B8,1.8 nM
10,B9,8 nM
11,B10,8 nM
12,B11,4.9 nM

# Biological target: T3, BCL-2 (UniProt P10415 1-217, limits assumed)
# T3 construct: Target of the Ki columns
# T3 sequence (P10415 1-217 limits assumed): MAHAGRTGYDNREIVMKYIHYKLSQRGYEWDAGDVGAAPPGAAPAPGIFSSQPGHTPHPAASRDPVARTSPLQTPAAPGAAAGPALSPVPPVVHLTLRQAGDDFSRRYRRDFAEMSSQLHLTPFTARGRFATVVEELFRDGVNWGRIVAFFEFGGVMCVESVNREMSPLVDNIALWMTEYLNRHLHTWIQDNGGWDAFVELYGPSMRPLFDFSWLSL
# Test: as above
row,Binder,Ki
1,B1,145 nM
2,B2,120 nM
3,B3,158 nM
4,B4,125 nM
5,IWIAQALRAIGDAXNAYYA (N-terminal Ac; $r8 at 9 and $ at 16 (crosslinked); Bip at 14; C-terminal NH2) [SEQ ID NO: 1747],114 nM
6,B5,142 nM
7,B6,104 nM
8,B7,35.3 nM
9,B8,30.7 nM
10,B9,67.5 nM
11,B10,57.4 nM
12,B11,71.6 nM
